What was measured:
[1] = molecular target: GPR-foldon (foldon stabilized collagen model peptide containing a (GPP)5GPR(GPP)6 collagen sequence); test: BLI; biotinylated GPR-foldon immobilised on streptavidin biosensors, blocked with 10 uM biocytin; HSP47 in solution; 50 mM Tris, 150 mM NaCl, pH 7.5 (TBS); kon and koff fitted with a 1:1 Langmuir model, KD = koff/kon
[2] = molecular target: GPR-foldon (foldon stabilized collagen model peptide containing a (GPP)5GPR(GPP)6 collagen sequence); test: ELISA; ELISA-like binding assay; type I collagen from rat tail coated at 10 ug/mL on MaxiSorp plates (coating of GPR-foldon not described); His-tagged HSP47 at 1.2 to 5,000 nM in solution; detected with HRP-coupled anti-His antibody; four-parameter logistic fit

## recombinant canine HSP47-R222S (from UniProt C7C419 36-418) (natural protein)
[1]
  Kd: 11500 nM
[2]
  Kd: 1500 nM

## recombinant wild-type canine HSP47 (from UniProt C7C419 36-418) (natural protein)
[1]
  Kd: 409 nM
[2]
  Kd: 56 nM
